Test results as given in publication PMC12205653 (The Journal of Biological Chemistry, 2025).

How the values were obtained:
[1] = target: endogenous CAPN2 (human (endogenous in MDA-MB-231)) (UniProt P17655)
[2] = target: T1, LgBiT-CAPNS1 (mammalian expression construct) (human, UniProt P04632 60-268); assay: split reporter (BiFC, NanoBiT); LgBiT and SmBiT fusions coexpressed pairwise in transfected HEK293T cells; luciferase signal of cell lysates as fold change over a LgBiT-alone control; conditions: partners not purified
T1 construct: CAPNS1, human, PEF(S) domain, residues 60-268, in pBiT1.1-N (TK/LgBiT); source: HEK293T, transfected, in lysate; not shown: LgBiT, N-terminal, kept
T1 sequence (looked up): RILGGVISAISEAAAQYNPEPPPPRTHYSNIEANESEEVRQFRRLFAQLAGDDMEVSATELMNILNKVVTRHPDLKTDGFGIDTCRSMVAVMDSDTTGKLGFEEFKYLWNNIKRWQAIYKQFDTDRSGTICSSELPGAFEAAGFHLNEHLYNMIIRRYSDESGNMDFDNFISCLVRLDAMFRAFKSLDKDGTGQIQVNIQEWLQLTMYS

His10-LgBiT-CAPNS1 [3] = target: T2, His10-LgBiT-CAPNS1 (human, UniProt P04632 60-268); assay: split reporter (BiFC, NanoBiT); fixed 100 nM LgBiT-CAPNS1, increasing SmBiT component, 5 mM Ca2+; estimated KD from the inflection of the plot assuming first-order kinetics; for CAPNS1 with CAPNS1: dimer to monomers; conditions: both partners purified
T2 construct: CAPNS1, calpain small regulatory subunit, human, penta-EF-hand domain PEF(S), residues 60-268; Cloned in pET16b; also called CAPNS1 PEF(S) biosensor component; source: E. coli BL21 RIPL; not shown: His10, N-terminal, kept; LgBiT, N-terminal, kept
T2 sequence (looked up): T1 sequence (looked up)

His10-LgBiT-CAPNS1 [4] = target: T2, His10-LgBiT-CAPNS1; assay: split reporter (BiFC, NanoBiT); crude bacterial lysates with approximately equimolar biosensor components; 5 mM Mg2+, no Ca2+; fold over His10-LgBiT-CAPNS1 alone; conditions: partners not purified
His10-LgBiT-CAPNS1 [5] = target: T2, His10-LgBiT-CAPNS1; assay: split reporter (BiFC, NanoBiT); fixed 100 nM LgBiT-CAPNS1, increasing SmBiT-CAPN1/2, 5 mM Mg2+ in place of Ca2+; estimated KD from the inflection of the plot assuming first-order kinetics; conditions: both partners purified

Chain of endogenous CAPN2 (human (endogenous in MDA-MB-231)) (P17655 20-700): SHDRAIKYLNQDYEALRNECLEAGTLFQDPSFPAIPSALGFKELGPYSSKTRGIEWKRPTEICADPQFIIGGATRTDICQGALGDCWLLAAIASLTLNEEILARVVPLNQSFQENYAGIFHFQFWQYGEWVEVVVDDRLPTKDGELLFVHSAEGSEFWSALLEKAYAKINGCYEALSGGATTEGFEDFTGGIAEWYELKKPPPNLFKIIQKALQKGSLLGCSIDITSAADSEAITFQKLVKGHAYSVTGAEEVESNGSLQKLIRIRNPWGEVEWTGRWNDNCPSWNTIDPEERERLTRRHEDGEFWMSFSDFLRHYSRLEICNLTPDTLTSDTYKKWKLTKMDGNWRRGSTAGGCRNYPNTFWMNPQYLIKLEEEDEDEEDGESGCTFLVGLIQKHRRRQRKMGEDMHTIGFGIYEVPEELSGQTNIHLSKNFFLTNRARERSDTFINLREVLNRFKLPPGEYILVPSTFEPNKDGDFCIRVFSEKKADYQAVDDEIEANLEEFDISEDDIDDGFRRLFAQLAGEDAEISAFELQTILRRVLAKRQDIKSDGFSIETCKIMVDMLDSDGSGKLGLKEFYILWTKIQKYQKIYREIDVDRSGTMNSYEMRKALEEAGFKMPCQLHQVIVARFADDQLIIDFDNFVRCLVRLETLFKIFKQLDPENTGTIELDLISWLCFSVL

For “recombinant CAPNS1 Q263R (pMSCV_CAPNS1) (from UniProt P04632 1-268) (natural protein)”, the calpain-2 casein proteolytic activity (zymography of cell lysates), standardized to CAPN2 expression, against WT CAPNS1 [1] was 51 % of the WT.

B1: SmBiT-CAPN1 (mammalian expression construct) (domain or fragment, human, UniProt P07384 538-714, looked up)
chain: LSEEEIDENFKALFRQLAGEDMEISVKELRTILNRIISKHKDLRTKGFSLESCRSMVNLMDRDGNGKLGLVEFNILWNRIRNYLSIFRKFDLDKSGSMSAYEMRMAIESAGFKLNKKLYELIITRYSEPDLAVDFDNFVCCLVRLETMFRFFKTLDTDLDGVVTFDLFKWLQLTMFA
notes: CAPN1, human, PEF(L) domain, residues 538-714, in pBiT2.1-N (TK/SmBiT); source: HEK293T, transfected, in lysate; not shown: SmBiT, N-terminal, kept
In the case of B1, the “fold increase of bioluminescence over LgBiT-CAPNS1 alone” value [2] is reported as ~400 fold.

B2: His6-MBP-SmBiT-CAPNS1 (domain or fragment, human, UniProt P04632 60-268, looked up)
chain: T1 sequence (looked up)
notes: CAPNS1, calpain small regulatory subunit, human, penta-EF-hand domain PEF(S), residues 60-268; Same CAPNS1 stretch as m1 with other tags; m4 with m1 measures the PEF(S):PEF(S) homodimer of CAPNS1; not shown: His6, N-terminal, kept; MBP, N-terminal, kept; SmBiT, N-terminal, kept
Molecule B2 has a Kd (His10-LgBiT-CAPNS1 [3]) of 635 nM.

B3: His6-MBP-SmBiT-CAPN1 (domain or fragment, human, UniProt P07384 538-714, looked up)
chain: B1 chain
notes: CAPN1, calpain-1 catalytic subunit, human, penta-EF-hand domain PEF(L), residues 538-714; Cloned in pHT29 (modified pET16b); also called CAPN1 PEF(L) biosensor component; source: E. coli BL21 RIPL; not shown: His6, N-terminal, kept; MBP, N-terminal, kept; SmBiT, N-terminal, kept
In the case of B3, the Kd (His10-LgBiT-CAPNS1 [3]) is reported as 185 nM, the “fold signal over LgBiT-CAPNS1 alone” value (His10-LgBiT-CAPNS1 [4]) is reported as 47 fold and the Kd (His10-LgBiT-CAPNS1 [5]) is reported as 362 nM.
